Data on one substance can be found in patent publication US20200332005A1.

This test deals with N-terminal of CD73. Kind of test: plate binding assay, axis Binding activity (OD450) against Ab (µg/ml); panel Binding to N-terminal of CD73.

As usually defined, the EC50 (read off the curve) is the midpoint of the concentration-response curve. A lower EC50 (read off the curve) goes with an effect from little substance. In turn, MEDI-9447 (Medimmune) (antibody) showed an EC50 (read off the curve) of 0.01 µg/mL.
